{"source": "patent US20260193323", "key": {"[1]": {"target": "T1, recombinantly produced LEKTI Domain 6", "T1 chain": "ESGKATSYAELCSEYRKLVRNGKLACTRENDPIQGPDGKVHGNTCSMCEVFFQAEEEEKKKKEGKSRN"}, "LEKTI domains 10-15": {"target": "T2, LEKTI domains 10-15", "T2 chain": "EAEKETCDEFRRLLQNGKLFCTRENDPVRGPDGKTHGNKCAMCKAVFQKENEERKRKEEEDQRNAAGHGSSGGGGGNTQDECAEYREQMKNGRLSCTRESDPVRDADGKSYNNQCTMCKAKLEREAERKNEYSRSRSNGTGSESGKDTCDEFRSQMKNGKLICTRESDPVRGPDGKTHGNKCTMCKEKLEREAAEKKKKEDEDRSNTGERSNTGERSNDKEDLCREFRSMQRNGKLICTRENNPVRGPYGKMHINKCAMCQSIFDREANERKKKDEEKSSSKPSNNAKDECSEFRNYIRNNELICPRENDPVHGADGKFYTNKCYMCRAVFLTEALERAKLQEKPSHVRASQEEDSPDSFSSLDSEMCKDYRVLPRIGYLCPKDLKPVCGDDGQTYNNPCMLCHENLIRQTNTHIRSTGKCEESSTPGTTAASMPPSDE"}}}
{"protein": "KLK7 (protein) IIDGAPCARGSHPWQVALLSGNQLHCGGVLVNERWVLTAAHCKMNEYTVHLGSDTLGDRRAQRIKASKSFRHPGYSTQTHVNDLMLVKLNSQARLSSMVKKVRLPSRCEPPGTTCTVSGWGTTTSPDVTFPSDLMCVDVKLISPQDCTKVYKDLLENSMLCAGIPDSKKNACNGDSGGPLVCRGTLQGLVSWGTFPCGQPNDPGVYTQVCKFTKWINDTMKKHR", "values": [{"measurement": "KLK7 activity (Suc-Arg-Pro-Tyr-p-Nitro-Anilide substrate, 405 nm)", "setting": "[1]", "value": "recombinantly produced LEKTI Domain 6 inhibits KLK7 in vitro about as well as LEKTI domains 10-15"}, {"measurement": "KLK7 activity (Suc-Arg-Pro-Tyr-p-Nitro-Anilide substrate, 405 nm)", "setting": "LEKTI domains 10-15", "value": "recombinantly produced LEKTI Domain 6 inhibits KLK7 in vitro about as well as LEKTI domains 10-15"}]}
